Patent publication US20240336909A1 (HARPOON THERAPEUTICS, published 2024)

T1: human EpCAM protein (human, UniProt P16422 24-265)
T1 construct: biotinylated in the Octet assays; also called hu EpCAM; biotinylated human EpCAM protein
T1 sequence (looked up): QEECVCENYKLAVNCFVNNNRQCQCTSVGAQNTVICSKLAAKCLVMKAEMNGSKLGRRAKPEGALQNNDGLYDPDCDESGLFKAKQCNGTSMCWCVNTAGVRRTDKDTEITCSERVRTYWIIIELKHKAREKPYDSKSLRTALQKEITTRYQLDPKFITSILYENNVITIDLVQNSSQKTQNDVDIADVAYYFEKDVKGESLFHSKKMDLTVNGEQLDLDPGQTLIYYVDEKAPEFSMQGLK


Columns and labels:
cynomolgus EpCAM protein = target: T2, cynomolgus EpCAM protein (cynomolgus monkey); assay: colorimetric ELISA
T2 construct: biotinylated in the Octet assays; also called cy EpCAM; cynomolgus monkey EpCAM
T2 sequence (Q1WER1 24-265): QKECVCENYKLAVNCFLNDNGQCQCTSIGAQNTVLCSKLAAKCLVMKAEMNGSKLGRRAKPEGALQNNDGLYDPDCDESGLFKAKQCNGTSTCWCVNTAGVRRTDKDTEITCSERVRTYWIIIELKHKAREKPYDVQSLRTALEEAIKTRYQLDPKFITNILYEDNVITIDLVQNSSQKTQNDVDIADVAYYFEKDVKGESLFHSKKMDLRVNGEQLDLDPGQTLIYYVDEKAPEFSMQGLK
Description: (§1) Llamas were immunized with purified EpCAM protein expressed in Expi293 cells. A phage display library for expression of heavy variable antibody domains was constructed from circulating B cells. See van der Linden, de Geus, Stok, Bos,van Wassenaar, Verrips, and Frenken. 2000. J Immunol Methods 240:185-195. Phage clones were screened for binding to EpCAM by expressing anti-EpCAM proteins in E coli, preparing periplasmic extracts, and proteins were screened for human and cynomolgus EpCAM binding activity using a colorimetric ELISA.

human EpCAM protein = target: T1, human EpCAM protein; assay: colorimetric ELISA
Description: as §1

Row | Binder | Cynomolgus EpCAM/Control (cynomolgus EpCAM protein) | ELISA absorbance (cynomolgus EpCAM protein) | ELISA absorbance (human EpCAM protein) | Human EpCAM/Control (human EpCAM protein)
1 | Llama anti-EpCAM single domain antibody EPL55 (VHH, E. coli periplasmic extract) VHH: QVQLQESGGGLVQAGGSLRLSCAASGDTFLRYAMGWFRQAPGKEREFVAAITWNGGNTDYAGSLKGRFTISRDNTKNTVYLQMNSLKPEDTAVYYCAADLTFGLASSHYQYDYWGQGTQVTVSS | 7 ratio | 0.6 absorbance | 0.4 absorbance | 5 ratio
2 | Llama anti-EpCAM single domain antibody EPL57 (VHH, E. coli periplasmic extract) VHH: QVQLQESGGGLVHTGGSLRLSCAFSGDTFLRYAMGWFRQAPGKEREFVAAITWNGGNTDYADSLKGRFTISRDNTKNTVYLQMNSLRPEDTAVYYCAADLTFGLASSHYQYDYWGQGTQVTVSS | 27 ratio | 3.4 absorbance | 1.7 absorbance | 14 ratio
3 | Llama anti-EpCAM single domain antibody EPL136 (VHH, E. coli periplasmic extract) VHH: QVQLQESGGGLVQPGGSLRLSCAASGDTFLRYAMGWFRQAPGKEREFVAAITWNGGNTDYAGSLKGRFTISRDNTKNTVYLQMNSLKPEDTAVYYCAADLTFGLASSHYQYDYWGQGTQVTVSS | 13 ratio | 1.3 absorbance | 0.9 absorbance | 9 ratio
4 | Llama anti-EpCAM single domain antibody EPL15 (VHH, E. coli periplasmic extract) VHH: QVQLQESGGGSVLAGGSLRLSCAASGFTFSSYYMSWVRQAPGKGLEWVSGIHYTGDWTNYADSVKGRFTISRDNAKNELYLEMNNLKPEDTAVYYCARGSDKGQGTQVTVSS | 35 ratio | 3.2 absorbance | 0.7 absorbance | 8 ratio
5 | Llama anti-EpCAM single domain antibody EPL34 (VHH, E. coli periplasmic extract) VHH: QVQLQESGGGSVQAGGSLRLSCAASGFTFSSYYMSWVRQAPGKGLEWVSGIHYTGDWTNYADSVKGRFTISRDNAKNELYLEMNNLKPEDTAVYYCARGSDKGQGTQVTVSS | 36 ratio | 3.1 absorbance | 0.9 absorbance | 10 ratio
6 | Llama anti-EpCAM single domain antibody EPL86 (VHH, E. coli periplasmic extract) VHH: QVQLQESGGGLVQPGGSLRLSCAASGFTFSDWAMSWVRQAPGKGLEWVSGIHYGDHTTHYADFVKGRFTISRDDAKNTLYLQMNSLKPEDTAVYYCARGSTKGQGTQVTVSS | 31 ratio | 3 absorbance | 0.8 absorbance | 8 ratio
7 | Llama anti-EpCAM single domain antibody EPL153 (VHH, E. coli periplasmic extract) VHH: QVQLQESGGGLVQPGGSLRLSCAASGFTFSDWAMSWVRQAPGKGLEWVSSIHYGDHTTHYADFVKGRFTISRDDAKNTLYLQMNSLKPEDTAVYYCEKGTTRGQGTQVTVSS | 21 ratio | 2.2 absorbance | 3.1 absorbance | 31 ratio
8 | Llama anti-EpCAM single domain antibody EPL20 (VHH, E. coli periplasmic extract) VHH: QVQLQESGGGLVQAGGSLKLSCAASGNVFRAATMAWYRQAPEKQREMVATIASGGTTNYADFVKGRFTISRDNAKNTVYLQMNTLKPEDTAVYYCNAGYLTSLGPKNYWGQGTQVTVSS | 4 ratio | 2.2 absorbance | 2.9 absorbance | 6 ratio
9 | Llama anti-EpCAM single domain antibody EPL125 (VHH, E. coli periplasmic extract) VHH: QVQLQESGGGLVQAGGSLRLSCAASGNVFRAATMAWYRQVPEKQREMVATIASGGTTNYADFVKGRFTISRDNAKNTVYLQMNTLKPEDTAVYYCNALYLTSLGPKSYWGQGTQVTVSS | 8 ratio | 3.5 absorbance | 3.5 absorbance | 8 ratio
10 | Llama anti-EpCAM single domain antibody EPL13 (VHH, E. coli periplasmic extract) VHH: QVQLQESGGGLVQPGGSLRLSCAASGFAFGNHWMYWYRQAPGRGRELVASISSGGSTNYVDSVKGRFTISRDNARNTVYLQMYSLKPEDTAVYYCGTSDNWGQGTQVTVSS | 23 ratio | 4 absorbance | 2.9 absorbance | 17 ratio
11 | Llama anti-EpCAM single domain antibody EPL129 (VHH, E. coli periplasmic extract) VHH: QVQLQESGGGLVQAGGSLRLSCAASGFAFGNHWMYWYRQAPGRGRELVASISSGGSTNYVDSVKGRFTISRDNARNTVYLQMYSLRPEDTAVYYCGTSDNWGQGTQVTVSS | 29 ratio | 3.1 absorbance | 2 absorbance | 20 ratio
12 | Llama anti-EpCAM single domain antibody EPL120 (VHH, E. coli periplasmic extract) VHH: QVQLQESGGGLVQAGGSLRLSCAASGFIFRAASISWYRQSPGNERELVATINSGGFTNYADSVLGRFTISRDNAKNTGYLQMNSLKPEDTAVYFCAATFLRSDGQPPIWGQGTQVTVSS | 4 ratio | 2.3 absorbance | 3.2 absorbance | 5 ratio
